In US20140271457A1 (AbbVie / Abbott, published 2014):

B1: DVD2814 (bispecific antibody, IgG1)
VH: EVQLVQSGAEVKKPGASVKVSCKASGYTFANYGIIWVRQAPGQGLEWMGWINTYTGKPTYAQKFQGRVTMTTDTSTSTAYMELSSLRSEDTAVYYCARKLFTTMDVTDNAMDYWGQGTTVTVSSASTKGPEVQLVESGGGLVQPGGSLRLSCAASGFSLTNNNVNWVRQAPGKGLEWVGGVWAGGATDYNSALKSRFTISRDNSKNTAYLQMNSLRAEDTAVYYCARDGGYSSSTLYAMDAWGQGTLVTVSS
VL: DIQMTQSPSSLSASVGDRVTITCRASQDISQYLNWYQQKPGKAPKLLIYYTSRLQSGVPSRFSGSGSGTDFTLTISSLQPEDFATYFCQQGNTWPPTFGQGTKLEIKRTVAAPDIQMTQSPSSLSASVGDRVTITCRASEDIYNALAWYQQKPGKAPKLLIYNTDTLHTGVPSRFSGSGSGTDYTLTISSLQPEDFATYFCQHYFHYPRTFGQGTKVEIKR
B2: DVD2816 (bispecific antibody, IgG1)
VH: B1 VH
VL: DIQMTQSPSSLSASVGDRVTITCRASQDISQYLNWYQQKPGKAPKLLIYYTSRLQSGVPSRFSGSGSGTDFTLTISSLQPEDFATYFCQQGNTWPPTFGQGTKLEIKRTVAAPSVFIFPPDIQMTQSPSSLSASVGDRVTITCRASEDIYNALAWYQQKPGKAPKLLIYNTDTLHTGVPSRFSGSGSGTDYTLTISSLQPEDFATYFCQHYFHYPRTFGQGTKVEIKR
B3: DVD2817 (bispecific antibody, IgG1)
VH: EVQLVQSGAEVKKPGASVKVSCKASGYTFANYGIIWVRQAPGQGLEWMGWINTYTGKPTYAQKFQGRVTMTTDTSTSTAYMELSSLRSEDTAVYYCARKLFTTMDVTDNAMDYWGQGTTVTVSSASTKGPSVFPLAPEVQLVESGGGLVQPGGSLRLSCAASGFSLTNNNVNWVRQAPGKGLEWVGGVWAGGATDYNSALKSRFTISRDNSKNTAYLQMNSLRAEDTAVYYCARDGGYSSSTLYAMDAWGQGTLVTVSS
VL: B1 VL
B4: DVD2767 (bispecific antibody, IgG1)
VH: EVQLVESGGGLVQPGGSLRLSCAASGFTFSNYGVEWVRQAPGKGLEWVSGIWADGSTHYADTVKSRFTISRDNSKNTLYLQMNSLRAEDTAVYYCAREWQHGPVAYWGQGTLVTVSSASTKGPSVFPLAPEVQLVESGGGLVQPGGSLRLSCAASGFSLTNNNVNWVRQAPGKGLEWVGGVWAGGATDYNSALKSRFTISRDNSKNTAYLQMNSLRAEDTAVYYCARDGGYSSSTLYAMDAWGQGTLVTVSS
VL: DIQMTQSPSSLSASVGDRVTITCKASQLVSSAVAWYQQKPGKAPKLLIYWASTLHTGVPSRFSGSGSGTDFTLTISSLQPEDFATYYCQQHYRTPFTFGQGTKLEIKRTVAAPDIQMTQSPSSLSASVGDRVTITCRASEDIYNALAWYQQKPGKAPKLLIYNTDTLHTGVPSRFSGSGSGTDYTLTISSLQPEDFATYFCQHYFHYPRTFGQGTKVEIKR
B5: DVD2769 (bispecific antibody, IgG1)
VH: EVQLVESGGGLVQPGGSLRLSCAASGFSLTNNNVNWVRQAPGKGLEWVGGVWAGGATDYNSALKSRFTISRDNSKNTAYLQMNSLRAEDTAVYYCARDGGYSSSTLYAMDAWGQGTLVTVSSASTKGPEVQLVESGGGLVQPGGSLRLSCAASGFTFSNYGVEWVRQAPGKGLEWVSGIWADGSTHYADTVKSRFTISRDNSKNTLYLQMNSLRAEDTAVYYCAREWQHGPVAYWGQGTLVTVSS
VL: DIQMTQSPSSLSASVGDRVTITCRASEDIYNALAWYQQKPGKAPKLLIYNTDTLHTGVPSRFSGSGSGTDYTLTISSLQPEDFATYFCQHYFHYPRTFGQGTKVEIKRTVAAPDIQMTQSPSSLSASVGDRVTITCKASQLVSSAVAWYQQKPGKAPKLLIYWASTLHTGVPSRFSGSGSGTDFTLTISSLQPEDFATYYCQQHYRTPFTFGQGTKLEIKR
B6: DVD2772 (bispecific antibody, IgG1)
VH: EVQLVESGGGLVQPGGSLRLSCAASGFSLTNNNVNWVRQAPGKGLEWVGGVWAGGATDYNSALKSRFTISRDNSKNTAYLQMNSLRAEDTAVYYCARDGGYSSSTLYAMDAWGQGTLVTVSSASTKGPSVFPLAPEVQLVESGGGLVQPGGSLRLSCAASGFTFSNYGVEWVRQAPGKGLEWVSGIWADGSTHYADTVKSRFTISRDNSKNTLYLQMNSLRAEDTAVYYCAREWQHGPVAYWGQGTLVTVSS
VL: B5 VL
B7: DVD2771 (bispecific antibody, IgG1)
VH: B5 VH
VL: DIQMTQSPSSLSASVGDRVTITCRASEDIYNALAWYQQKPGKAPKLLIYNTDTLHTGVPSRFSGSGSGTDYTLTISSLQPEDFATYFCQHYFHYPRTFGQGTKVEIKRTVAAPSVFIFPPDIQMTQSPSSLSASVGDRVTITCKASQLVSSAVAWYQQKPGKAPKLLIYWASTLHTGVPSRFSGSGSGTDFTLTISSLQPEDFATYYCQQHYRTPFTFGQGTKLEIKR
B8: DVD2813 (bispecific antibody, IgG1)
VH: EVQLVQSGAEVKKPGASVKVSCKASGYTFANYGIIWVRQAPGQGLEWMGWINTYTGKPTYAQKFQGRVTMTTDTSTSTAYMELSSLRSEDTAVYYCARKLFTTMDVTDNAMDYWGQGTTVTVSSGGGGSGGGGSEVQLVESGGGLVQPGGSLRLSCAASGFSLTNNNVNWVRQAPGKGLEWVGGVWAGGATDYNSALKSRFTISRDNSKNTAYLQMNSLRAEDTAVYYCARDGGYSSSTLYAMDAWGQGTLVTVSS
VL: DIQMTQSPSSLSASVGDRVTITCRASQDISQYLNWYQQKPGKAPKLLIYYTSRLQSGVPSRFSGSGSGTDFTLTISSLQPEDFATYFCQQGNTWPPTFGQGTKLEIKRGGSGGGGSGDIQMTQSPSSLSASVGDRVTITCRASEDIYNALAWYQQKPGKAPKLLIYNTDTLHTGVPSRFSGSGSGTDYTLTISSLQPEDFATYFCQHYFHYPRTFGQGTKVEIKR
B9: DVD2768 (bispecific antibody, IgG1)
VH: EVQLVESGGGLVQPGGSLRLSCAASGFSLTNNNVNWVRQAPGKGLEWVGGVWAGGATDYNSALKSRFTISRDNSKNTAYLQMNSLRAEDTAVYYCARDGGYSSSTLYAMDAWGQGTLVTVSSGGGGSGGGGSEVQLVESGGGLVQPGGSLRLSCAASGFTFSNYGVEWVRQAPGKGLEWVSGIWADGSTHYADTVKSRFTISRDNSKNTLYLQMNSLRAEDTAVYYCAREWQHGPVAYWGQGTLVTVSS
VL: DIQMTQSPSSLSASVGDRVTITCRASEDIYNALAWYQQKPGKAPKLLIYNTDTLHTGVPSRFSGSGSGTDYTLTISSLQPEDFATYFCQHYFHYPRTFGQGTKVEIKRGGSGGGGSGDIQMTQSPSSLSASVGDRVTITCKASQLVSSAVAWYQQKPGKAPKLLIYWASTLHTGVPSRFSGSGSGTDFTLTISSLQPEDFATYYCQQHYRTPFTFGQGTKLEIKR

Columns and labels:
Recombinant Human β-NGF = Recombinant Human β-NGF (human, UniProt P01138 122-241); assay: cell-based or functional assay
[1] = target: Recombinant Human TNF-α/TNFSF1A (human, UniProt P01375 77-233); assay: cell-based or functional assay
Chain of Recombinant Human TNF-α/TNFSF1A (P01375 77-233 limits assumed): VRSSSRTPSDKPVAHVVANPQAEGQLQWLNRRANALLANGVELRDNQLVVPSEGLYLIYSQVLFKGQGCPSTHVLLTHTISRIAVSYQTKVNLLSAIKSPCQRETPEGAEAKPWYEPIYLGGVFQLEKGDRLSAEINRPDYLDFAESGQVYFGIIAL

Chain of Recombinant Human β-NGF (P01138 122-241 limits assumed): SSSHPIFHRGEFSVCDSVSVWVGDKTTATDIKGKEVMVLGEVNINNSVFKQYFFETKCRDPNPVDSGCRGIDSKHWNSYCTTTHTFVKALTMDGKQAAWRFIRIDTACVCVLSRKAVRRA

Binder	C-Terminal VD NGF Neutralization Assay IC50 (Recombinant Human β-NGF) [nM]	N-Terminal VD huTNFα Neutralization Assay IC50 [1] [nM]	N-Terminal VD NGF Neutralization Assay IC50 (Recombinant Human β-NGF) [nM]	C-Terminal VD huTNFα Neutralization Assay IC50 [1] [nM]
B1	0.019	0.012		
B2	2.89	0.009		
B3	1.27	0.013		
B4	0.646	0.01		
B5			0.001	0.222
B6			0.04	0.128
B7			0.037	0.06
B8	7.46	0.016		
B9			0.003	0.189
